These results are taken from PMC2657102, “Molecular cloning and characterization of a novel pyrethroid-hydrolyzing esterase originating from the Metagenome” (Microbial Cell Factories, 2008).

In general, Km refers to the concentration of substrate that gives half-maximal velocity.

The data set has as its system CC1(C)C(C=C(Cl)Cl)C1C(=O)OCc1cccc(Oc2ccccc2)c1. The data set can be described thus: purified protein. The following applies: analogous to ρ-nitrophenyl ester assay (50 mM sodium phosphate pH 7.0, 30°C).

Values joined by “and” are separate entries in the source; they are usually repeats but may differ in a detail not shown here. Equal values may be shown once.

On to “Pye3 (pyrethroid-hydrolyzing esterase) (uncultured prokaryote)”, for which the Km is 0.10 µM and 0.18 µM.
